Data from patent US20060286609A1 (BIOCHECK, published 2006).

T1: Mouse Id1: Histidine (mouse, UniProt P20067-2 1-148)
T1 construct: E. coli fusion protein (vector pGW07); also called m-Id1-His; not shown: His-tag
T1 sequence: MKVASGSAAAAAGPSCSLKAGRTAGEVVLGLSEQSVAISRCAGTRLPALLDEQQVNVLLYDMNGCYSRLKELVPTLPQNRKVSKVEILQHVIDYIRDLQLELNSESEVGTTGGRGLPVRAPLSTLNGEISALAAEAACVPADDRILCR

T2: Mouse Id4: Histidine (mouse, UniProt P41139 1-161, limits assumed)
T2 construct: E. coli fusion protein (vector pGW07); also called m-Id4: His; not shown: His-tag
T2 sequence (looked up): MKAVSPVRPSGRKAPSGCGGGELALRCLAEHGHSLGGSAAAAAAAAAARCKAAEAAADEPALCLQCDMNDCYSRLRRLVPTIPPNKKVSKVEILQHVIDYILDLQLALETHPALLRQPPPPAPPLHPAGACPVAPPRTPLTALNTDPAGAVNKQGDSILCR

T3: Mouse Id3: Histidine (mouse, UniProt P41133 1-119, limits assumed)
T3 construct: E. coli fusion protein (vector pGW07); also called m-Id3: His; not shown: His-tag
T3 sequence (looked up): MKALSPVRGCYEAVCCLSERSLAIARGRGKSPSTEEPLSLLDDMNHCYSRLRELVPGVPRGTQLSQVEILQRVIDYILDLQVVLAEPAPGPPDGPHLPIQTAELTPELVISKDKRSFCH

T4: Human Id4: Histidine (human, UniProt P47928 1-161, limits assumed)
T4 construct: E. coli fusion protein (vector pGW07); also called h-Id4: His; not shown: His-tag
T4 sequence (looked up): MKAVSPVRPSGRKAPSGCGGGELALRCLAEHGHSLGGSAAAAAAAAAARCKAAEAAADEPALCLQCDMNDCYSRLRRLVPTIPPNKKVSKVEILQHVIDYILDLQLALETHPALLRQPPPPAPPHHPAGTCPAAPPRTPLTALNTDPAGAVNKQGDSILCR

T5: Human Id2: Histidine (human, UniProt Q02363 1-134, limits assumed)
T5 construct: E. coli fusion protein (vector pGW07); also called h-Id2: His; not shown: His-tag
T5 sequence (looked up): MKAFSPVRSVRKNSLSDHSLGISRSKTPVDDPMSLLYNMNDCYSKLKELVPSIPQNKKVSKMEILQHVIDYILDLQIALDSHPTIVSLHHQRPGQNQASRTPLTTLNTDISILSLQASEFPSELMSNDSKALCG

T6: Human Id3: Histidine (human, UniProt Q02535 1-119, limits assumed)
T6 construct: E. coli fusion protein (vector pGW07); also called h-Id3: His; not shown: His-tag
T6 sequence (looked up): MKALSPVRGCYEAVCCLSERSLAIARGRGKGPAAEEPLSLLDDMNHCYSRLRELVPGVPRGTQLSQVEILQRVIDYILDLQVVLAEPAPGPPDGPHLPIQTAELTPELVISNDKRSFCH

T7: Mouse Id2: Histidine (mouse, UniProt P41136 1-134, limits assumed)
T7 construct: E. coli fusion protein (vector pGW07); also called m-Id2: His; not shown: His-tag
T7 sequence (looked up): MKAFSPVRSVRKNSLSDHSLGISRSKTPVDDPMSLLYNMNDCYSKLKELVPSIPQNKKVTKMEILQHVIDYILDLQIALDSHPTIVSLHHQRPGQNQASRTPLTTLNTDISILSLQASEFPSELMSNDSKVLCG


Assays:
Mouse Id1: Histidine [1] = molecular target: T1, Mouse Id1: Histidine; test: ELISA, coated antigen, Ab 0.500 ug/ml
Mouse Id4: Histidine [2] = molecular target: T2, Mouse Id4: Histidine; test: ELISA, coated antigen, Ab 0.500 ug/ml
Mouse Id3: Histidine [3] = molecular target: T3, Mouse Id3: Histidine; test: ELISA, coated antigen, Ab 0.500 ug/ml
Mouse Id1: Histidine [4] = molecular target: T1, Mouse Id1: Histidine; test: ELISA, coated antigen, Ab 0.005 ug/ml
Mouse Id4: Histidine [5] = molecular target: T2, Mouse Id4: Histidine; test: ELISA, coated antigen, Ab 0.005 ug/ml
Human Id4: Histidine [6] = molecular target: T4, Human Id4: Histidine; test: ELISA, coated antigen, Ab 0.005 ug/ml
Mouse Id3: Histidine [7] = molecular target: T3, Mouse Id3: Histidine; test: ELISA, coated antigen, Ab 0.005 ug/ml
Human Id2: Histidine [8] = molecular target: T5, Human Id2: Histidine; test: ELISA, coated antigen, Ab 0.005 ug/ml
Human Id3: Histidine [9] = molecular target: T6, Human Id3: Histidine; test: ELISA, coated antigen, Ab 0.005 ug/ml
Mouse Id2: Histidine [10] = molecular target: T7, Mouse Id2: Histidine; test: ELISA, coated antigen, Ab 0.005 ug/ml
Mouse Id1: Histidine [11] = molecular target: T1, Mouse Id1: Histidine; test: ELISA, coated antigen, Ab 0.000 ug/ml (blank, diluent only)
Mouse Id4: Histidine [12] = molecular target: T2, Mouse Id4: Histidine; test: as above
Human Id4: Histidine [13] = molecular target: T4, Human Id4: Histidine; test: as above
Mouse Id3: Histidine [14] = molecular target: T3, Mouse Id3: Histidine; test: as above
Human Id2: Histidine [15] = molecular target: T5, Human Id2: Histidine; test: as above
Mouse Id2: Histidine [16] = molecular target: T7, Mouse Id2: Histidine; test: as above
Mouse Id4: Histidine [17] = molecular target: T2, Mouse Id4: Histidine; test: ELISA, coated antigen; relative to mouse Id1
Human Id4: Histidine [18] = molecular target: T4, Human Id4: Histidine; test: ELISA, coated antigen; relative to mouse Id1
Mouse Id3: Histidine [19] = molecular target: T3, Mouse Id3: Histidine; test: ELISA, coated antigen; relative to mouse Id1
Human Id2: Histidine [20] = molecular target: T5, Human Id2: Histidine; test: ELISA, coated antigen; relative to mouse Id1
Human Id3: Histidine [21] = molecular target: T6, Human Id3: Histidine; test: ELISA, coated antigen; relative to mouse Id1
Mouse Id2: Histidine [22] = molecular target: T7, Mouse Id2: Histidine; test: ELISA, coated antigen; relative to mouse Id1

Molecule | A450 (Mouse Id1: Histidine [1]) [A450] | A450 (Mouse Id4: Histidine [2]) [A450] | A450 (Mouse Id3: Histidine [3]) [A450] | A450 (Mouse Id1: Histidine [4]) [A450] | A450 (Mouse Id4: Histidine [5]) [A450] | A450 (Human Id4: Histidine [6]) [A450] | A450 (Mouse Id3: Histidine [7]) [A450] | A450 (Human Id2: Histidine [8]) [A450] | A450 (Human Id3: Histidine [9]) [A450] | A450 (Mouse Id2: Histidine [10]) [A450] | A450 (Mouse Id1: Histidine [11]) [A450] | A450 (Mouse Id4: Histidine [12]) [A450] | A450 (Human Id4: Histidine [13]) [A450] | A450 (Mouse Id3: Histidine [14]) [A450] | A450 (Human Id2: Histidine [15]) [A450] | A450 (Mouse Id2: Histidine [16]) [A450] | Cross-reactivity (%) (Mouse Id4: Histidine [17]) | Cross-reactivity (%) (Human Id4: Histidine [18]) | Cross-reactivity (%) (Mouse Id3: Histidine [19]) | Cross-reactivity (%) (Human Id2: Histidine [20]) | further results
rabbit monoclonal anti-human Id1, clone #BCH-2/#5-3 (antibody) | 0.151 | 0.05 | 0.05 | 0.063 | 0.045 | 0.049 | 0.047 | 0.049 | 0.048 | 0.048 | 0.046 | 0.045 | 0.046 | 0.058 | 0.049 | 0.051 | – | – | – | – | –
rabbit monoclonal anti-mouse/human Id1, clone #BCH-1/#195-14 (antibody) | 2.79 | 0.049 | 0.051 | 0.249 | 0.047 | 0.044 | 0.048 | 0.048 | 0.047 | 0.052 | 0.045 | 0.047 | 0.046 | 0.05 | 0.058 | 0.051 | < 1 | < 1 | < 1 | < 1 | Cross-reactivity (%) (Human Id3: Histidine [21]): < 1%; Cross-reactivity (%) (Mouse Id2: Histidine [22]): < 1%
rabbit monoclonal anti-mouse Id1, clone #BCH-1/#37-2 (antibody, V domains shown, Rabbit IgG from hybridoma, Protein G purified; also called m Id1 MoAb 37-2; Rabbit Monoclonal Anti-Mouse Id1 (#37-2)) VH: QSVEESGGRLVTPGTPLTLTCKVSGFDINSYAMDWFRQAPGKGLEWIGMMSTRGNTYYTSWAKGRFTISKTSSTTVDLKMTSLTTEDTATYFCARGGLWGPGTLVTVSS VL: RVLTQTASPVSAAVGGTVTINCQASQSVYNGNRLGWYQLKPGQSPKELIHDASTLASGVPSRFRGSGSGTQFTLTINDVQCDDAATYYCVGSYACSTGDCNVFGGGTEVVVK | – | – | – | – | – | – | – | – | – | – | – | – | – | – | – | – | < 1 | < 1 | < 1 | < 1 | Cross-reactivity (%) (Human Id3: Histidine [21]): < 1%; Cross-reactivity (%) (Mouse Id2: Histidine [22]): < 1%
